{
  "source": "patent US20020106772A1",
  "about": "(WASHINGTON STATE UNIVERSITY RESEARCH FOUNDATION, published 2002)",
  "binders": {"B1": {"name": "geranyl diphosphate synthase large subunit from peppermint (Mentha piperita), full-length preprotein encoded by the cDNA insert of pMp23.10, expressed from … (enzyme)", "chain": "MSALVNPVAKWPQTIGVKDVHGGRRRRSRSTLFQSHPLRTEMPFSLYFSSPLKAPATFSVSAVYTKEGSEIRDKDPAPSTSPAFDFDGYMLRKAKSVNKALEAAVQMKEPLKIHESMRYSLLAGGKRVRPMLCIAACELVGGDESTAMPAACAVEMIHTMSLMHDDLPCMDNDDLRRGKPTNHMAFGESVAVLAGDALLSFAFEHVAAATKGAPPERIVRVLGELAVSIGSEGLVAGQVVDVCSEGMAEVGLDHLEFIHHHKTAALLQGSVVLGAILGGGKEEEVAKLRKFANCIGLLFQVVDDILDVTKSSKELGKTAGKDLVADKTTYPKLIGVEKSKEFADRLNREAQEQLLHFHPHRAAPLIALANYIAYRDN", "notes": "also called Mp23.10 protein; pMp23.10 protein"}},
  "biological_target": "T1, geranyl diphosphate synthase small subunit from Mentha, full-length preprotein encoded by the cDNA insert of … (Mentha piperita (peppermint oil gland …))",
  "T1 construct": "also called Mp13.18 protein; 28 kDa protein",
  "T1 chain": "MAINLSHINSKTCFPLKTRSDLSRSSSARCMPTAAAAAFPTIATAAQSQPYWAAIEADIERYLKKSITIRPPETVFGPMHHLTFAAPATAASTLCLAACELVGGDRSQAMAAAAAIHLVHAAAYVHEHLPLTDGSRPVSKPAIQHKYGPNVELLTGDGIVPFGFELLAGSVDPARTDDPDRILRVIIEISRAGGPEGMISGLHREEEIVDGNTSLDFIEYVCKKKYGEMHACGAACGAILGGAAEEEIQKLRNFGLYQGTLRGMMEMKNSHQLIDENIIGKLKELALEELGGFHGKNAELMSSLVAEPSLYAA",
  "assay": "co-expression in E. coli, anion-exchange chromatography, activity assay",
  "procedure": "The transformed bacteria were then induced with 1 mM IPTG and allowed to express for 24 h at 15° C. The bacteria were harvested by centrifugation, washed once with Tris buffer (pH 7.0) containing 50 mM KCl, and resuspended in 25 ml sonication buffer (25 mM Hepes, pH 7.2, 10 mM MgCl₂, 10% glycerol, 1 mM DTT, 1 mM EDTA and 1 mM benzamidine) and disrupted by brief sonication (VirSonic, 25% power, two 30 s bursts, 0-4° C.). The sonicate was centrifuged at 12,000 g (30 min), then at 195,000 g (90 min). The supernatant (soluble enzyme fraction) was loaded onto an HR 5/5 column containing Source 15Q anion-exchange separation medium (Pharmacia Biotech) that had been equilibrated with Hepes buffer (25 mM, pH 7.5) containing 10% glycerol, 10 mM MgCl₂, 1 mM DTT and 1 mM benzamidine. A step gradient of KCl (0-85 mM (10 ml); 85 mM (15 ml); 85-600 mM (20 ml)) was applied, and 2 ml fractions were collected and assayed for prenyltransferase activity using [¹⁴C]IPP and DMAPP (or GPP or FPP) as cosubstrates as described above. […]",
  "data": [
    {"binder": "B1", "values": [
      {"measurement": "binding result", "result": "binds"}
    ]}
  ]
}
